The results in this text go back to patent US20260055162A1.

What all share (assay): cell-based or functional assay
The target of assay [1] is AA-TGFB-007 (TGFB-007), TGF-BR2 ECD-TGFBR2 TM-TGFBR2 truncated ICD (Homo sapiens (Human)) (UniProt P37173).
Assay [2] deals with AA-TGFB-021 (TGFB-021), TGF-BR2 ECD-CD28 TM-CD3z ICD.
In assay [3] the target is AA-SR-117 (SR-117), CD200R ECD-CD28 TM-CD3z ICD.
Assay [4] concerns the target AA-SR-102 (SR-102), CD200R ECD-CD200R TM-CD3z ICD.
Assay [5] concerns the target AA-SR-100 (SR-100), BTLA ECD-BTLA TM-CD3z ICD.
Assay [6] concerns the target AA-SR-115 (SR-115), BTLA ECD-CD28 TM-CD3z ICD.
In assay [7] the target is AA-SR-121 (SR-121), IL10RA ECD-CD28 TM-CD3z ICD.
Assay [8] deals with AA-SR-106 (SR-106), IL10RA ECD-IL10RA TM-CD3z ICD.
The target of assay [9] is AA-SR-104 (SR-104), CTLA4 ECD-CTLA4 TM-CD3z ICD.
The target of assay [10] is AA-SR-119 (SR-119), CTLA4 ECD-CD28 TM-CD3z ICD.
Chain of AA-SR-119 (SR-119), CTLA4 ECD-CD28 TM-CD3z ICD (chain, as listed by the source limits assumed, form in doubt): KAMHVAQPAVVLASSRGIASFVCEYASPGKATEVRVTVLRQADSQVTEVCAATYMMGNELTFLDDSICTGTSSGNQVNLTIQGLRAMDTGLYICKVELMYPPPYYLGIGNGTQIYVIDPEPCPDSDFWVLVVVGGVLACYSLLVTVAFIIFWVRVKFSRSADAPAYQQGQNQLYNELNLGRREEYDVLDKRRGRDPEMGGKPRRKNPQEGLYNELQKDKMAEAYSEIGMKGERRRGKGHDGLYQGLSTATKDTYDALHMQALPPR

Chain of AA-SR-121 (SR-121), IL10RA ECD-CD28 TM-CD3z ICD (chain, as listed by the source limits assumed, form in doubt): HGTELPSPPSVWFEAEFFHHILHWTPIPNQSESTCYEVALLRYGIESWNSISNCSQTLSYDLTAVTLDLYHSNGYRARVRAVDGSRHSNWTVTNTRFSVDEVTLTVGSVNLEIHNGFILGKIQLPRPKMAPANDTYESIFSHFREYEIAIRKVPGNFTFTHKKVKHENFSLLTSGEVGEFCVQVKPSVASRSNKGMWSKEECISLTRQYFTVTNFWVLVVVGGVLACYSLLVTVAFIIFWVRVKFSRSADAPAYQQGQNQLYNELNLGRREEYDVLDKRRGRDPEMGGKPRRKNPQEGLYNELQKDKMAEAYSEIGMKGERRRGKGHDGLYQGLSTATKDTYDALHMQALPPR
Chain of AA-SR-104 (SR-104), CTLA4 ECD-CTLA4 TM-CD3z ICD (chain, as listed by the source limits assumed, form in doubt): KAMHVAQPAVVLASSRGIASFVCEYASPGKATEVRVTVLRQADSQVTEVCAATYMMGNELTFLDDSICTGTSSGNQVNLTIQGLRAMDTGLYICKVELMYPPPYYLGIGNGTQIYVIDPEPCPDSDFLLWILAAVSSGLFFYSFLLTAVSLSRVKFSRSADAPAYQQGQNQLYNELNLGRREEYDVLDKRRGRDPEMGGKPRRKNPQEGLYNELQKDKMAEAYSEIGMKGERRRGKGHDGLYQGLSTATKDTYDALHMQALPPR
Chain of AA-SR-117 (SR-117), CD200R ECD-CD28 TM-CD3z ICD (chain, as listed by the source limits assumed, form in doubt): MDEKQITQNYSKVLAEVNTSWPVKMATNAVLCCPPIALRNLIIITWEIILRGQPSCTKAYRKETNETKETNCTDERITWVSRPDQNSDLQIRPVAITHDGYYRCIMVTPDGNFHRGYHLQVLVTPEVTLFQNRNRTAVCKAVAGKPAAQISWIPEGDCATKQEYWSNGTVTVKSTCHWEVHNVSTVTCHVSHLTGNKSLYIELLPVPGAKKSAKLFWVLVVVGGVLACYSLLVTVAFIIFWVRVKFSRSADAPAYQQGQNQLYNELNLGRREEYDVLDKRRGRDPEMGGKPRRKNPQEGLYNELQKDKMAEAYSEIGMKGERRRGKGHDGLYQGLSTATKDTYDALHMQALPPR
Chain of AA-SR-100 (SR-100), BTLA ECD-BTLA TM-CD3z ICD (chain, as listed by the source limits assumed, form in doubt): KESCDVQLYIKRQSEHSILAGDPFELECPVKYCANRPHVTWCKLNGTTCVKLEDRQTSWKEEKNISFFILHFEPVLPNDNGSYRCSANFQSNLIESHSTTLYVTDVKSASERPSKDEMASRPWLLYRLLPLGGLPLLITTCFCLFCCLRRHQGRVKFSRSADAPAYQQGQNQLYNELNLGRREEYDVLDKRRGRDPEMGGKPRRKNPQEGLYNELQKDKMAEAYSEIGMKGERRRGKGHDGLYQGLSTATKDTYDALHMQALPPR
Chain of AA-SR-115 (SR-115), BTLA ECD-CD28 TM-CD3z ICD (chain, as listed by the source limits assumed, form in doubt): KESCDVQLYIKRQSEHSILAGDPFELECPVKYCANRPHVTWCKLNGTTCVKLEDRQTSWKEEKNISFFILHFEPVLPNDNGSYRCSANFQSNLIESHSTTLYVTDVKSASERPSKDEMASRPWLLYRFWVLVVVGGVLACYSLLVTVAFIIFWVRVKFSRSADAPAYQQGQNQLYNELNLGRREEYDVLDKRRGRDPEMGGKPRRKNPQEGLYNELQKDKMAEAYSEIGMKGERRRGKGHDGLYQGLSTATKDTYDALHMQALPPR
Chain of AA-SR-102 (SR-102), CD200R ECD-CD200R TM-CD3z ICD (chain, as listed by the source limits assumed, form in doubt): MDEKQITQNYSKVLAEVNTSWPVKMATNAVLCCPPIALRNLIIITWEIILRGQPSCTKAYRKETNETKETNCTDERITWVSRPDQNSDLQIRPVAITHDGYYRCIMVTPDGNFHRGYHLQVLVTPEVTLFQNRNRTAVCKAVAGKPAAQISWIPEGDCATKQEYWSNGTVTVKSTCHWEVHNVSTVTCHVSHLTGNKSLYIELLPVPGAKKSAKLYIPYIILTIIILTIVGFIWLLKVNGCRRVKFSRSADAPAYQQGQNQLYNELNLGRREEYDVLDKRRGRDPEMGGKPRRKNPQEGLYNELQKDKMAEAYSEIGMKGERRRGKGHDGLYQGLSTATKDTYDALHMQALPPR
Chain of AA-TGFB-021 (TGFB-021), TGF-BR2 ECD-CD28 TM-CD3z ICD (chain, as listed by the source limits assumed, form in doubt): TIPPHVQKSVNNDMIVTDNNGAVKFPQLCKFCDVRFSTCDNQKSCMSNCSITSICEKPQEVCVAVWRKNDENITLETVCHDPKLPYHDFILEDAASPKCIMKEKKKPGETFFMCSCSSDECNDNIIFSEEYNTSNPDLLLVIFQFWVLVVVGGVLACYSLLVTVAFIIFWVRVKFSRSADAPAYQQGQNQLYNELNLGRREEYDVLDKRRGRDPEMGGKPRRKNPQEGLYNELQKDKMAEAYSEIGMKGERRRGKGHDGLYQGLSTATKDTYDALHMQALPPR
Chain of AA-TGFB-007 (TGFB-007), TGF-BR2 ECD-TGFBR2 TM-TGFBR2 truncated ICD (Homo sapiens (Human)) (P37173 23-199, form in doubt): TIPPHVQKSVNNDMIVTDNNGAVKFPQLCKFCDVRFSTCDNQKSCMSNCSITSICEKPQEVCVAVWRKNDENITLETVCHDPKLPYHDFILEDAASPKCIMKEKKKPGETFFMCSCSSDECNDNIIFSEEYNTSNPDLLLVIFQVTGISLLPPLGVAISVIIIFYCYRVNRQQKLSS
Chain of AA-SR-106 (SR-106), IL10RA ECD-IL10RA TM-CD3z ICD (chain, as listed by the source limits assumed, form in doubt): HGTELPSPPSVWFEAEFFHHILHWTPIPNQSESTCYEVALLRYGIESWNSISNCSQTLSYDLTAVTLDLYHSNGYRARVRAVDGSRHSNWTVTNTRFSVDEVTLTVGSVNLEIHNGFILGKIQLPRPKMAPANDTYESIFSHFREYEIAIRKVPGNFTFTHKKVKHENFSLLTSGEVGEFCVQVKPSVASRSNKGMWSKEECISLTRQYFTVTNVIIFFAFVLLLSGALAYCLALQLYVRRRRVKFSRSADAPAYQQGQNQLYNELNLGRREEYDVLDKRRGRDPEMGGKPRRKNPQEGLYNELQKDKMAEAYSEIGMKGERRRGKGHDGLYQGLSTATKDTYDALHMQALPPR

With “anti-TGF-BR2 mAb clone W17055E (antibody)”, in assay [1], the CD69, fold-change of MFI over no stimulation, High (10 ug/mL) worked out at 2 fold; the CD69, fold-change of MFI over no stimulation, Low (0.4 ug/mL) came out at 1.3 fold; the CD69, fold-change of MFI over no stimulation, Med. (2 ug/mL) was found to be 1.5 fold; the GFP, fold-change of MFI over no stimulation, High (10 ug/mL) came out at 1 fold. In [1], the GFP, fold-change of MFI over no stimulation, Low (0.4 ug/mL) is 0.8 fold and the GFP, fold-change of MFI over no stimulation, Med. (2 ug/mL) was found to be 0.9 fold. Moreover, in assay [2], the CD69, fold-change of MFI over no stimulation, High (10 ug/mL) stood at 88.2 fold; the CD69, fold-change of MFI over no stimulation, Low (0.4 ug/mL) stood at 2.2 fold; the CD69, fold-change of MFI over no stimulation, Med. (2 ug/mL) stood at 25.2 fold; the GFP, fold-change of MFI over no stimulation, High (10 ug/mL) came to 5 fold. Moreover, in assay [2], the GFP, fold-change of MFI over no stimulation, Low (0.4 ug/mL) was 0.9 fold and the GFP, fold-change of MFI over no stimulation, Med. (2 ug/mL) was 2.9 fold.
On to anti-CD200R mAb clone OX-108 (antibody), for which, in assay [3], the CD69, fold-change of MFI over no stimulation, High (10 ug/mL) was found to be 8.7 fold; the CD69, fold-change of MFI over no stimulation, Low (0.4 ug/mL) is 0.9 fold; the CD69, fold-change of MFI over no stimulation, Med. (2 ug/mL) was found to be 1.1 fold; the GFP, fold-change of MFI over no stimulation, High (10 ug/mL) was 5.9 fold. Further, in assay [3], the GFP, fold-change of MFI over no stimulation, Low (0.4 ug/mL) was found to be 1.1 fold and the GFP, fold-change of MFI over no stimulation, Med. (2 ug/mL) came out at 0.9 fold. Moreover, in assay [4], the CD69, fold-change of MFI over no stimulation, High (10 ug/mL) is 29.2 fold; the CD69, fold-change of MFI over no stimulation, Low (0.4 ug/mL) turned out to be 1.3 fold; the CD69, fold-change of MFI over no stimulation, Med. (2 ug/mL) is 4.9 fold; the GFP, fold-change of MFI over no stimulation, High (10 ug/mL) stood at 6.8 fold. In addition, in assay [4], the GFP, fold-change of MFI over no stimulation, Low (0.4 ug/mL) was found to be 0.8 fold and the GFP, fold-change of MFI over no stimulation, Med. (2 ug/mL) was determined as 1.4 fold.
For anti-BTLA mAb clone MIH26 (antibody), in assay [5], the CD69, fold-change of MFI over no stimulation, High (10 ug/mL) came out at 125 fold; the CD69, fold-change of MFI over no stimulation, Low (0.4 ug/mL) stood at 62.7 fold; the CD69, fold-change of MFI over no stimulation, Med. (2 ug/mL) was found to be 124 fold; the GFP, fold-change of MFI over no stimulation, High (10 ug/mL) came out at 13 fold. In [5], the GFP, fold-change of MFI over no stimulation, Low (0.4 ug/mL) worked out at 6.1 fold and the GFP, fold-change of MFI over no stimulation, Med. (2 ug/mL) amounted to 7.5 fold. Further, in [6], the CD69, fold-change of MFI over no stimulation, High (10 ug/mL) came to 9.2 fold; the CD69, fold-change of MFI over no stimulation, Low (0.4 ug/mL) turned out to be 10.8 fold; the CD69, fold-change of MFI over no stimulation, Med. (2 ug/mL) was 14.1 fold; the GFP, fold-change of MFI over no stimulation, High (10 ug/mL) stood at 3.5 fold. In assay [6], the GFP, fold-change of MFI over no stimulation, Low (0.4 ug/mL) turned out to be 5.1 fold and the GFP, fold-change of MFI over no stimulation, Med. (2 ug/mL) is 6.9 fold.
For anti-IL-10RA mAb clone 37607 (antibody), in assay [7], the CD69, fold-change of MFI over no stimulation, High (10 ug/mL) was determined as 14.3 fold; the CD69, fold-change of MFI over no stimulation, Low (0.4 ug/mL) worked out at 2.2 fold; the CD69, fold-change of MFI over no stimulation, Med. (2 ug/mL) is 7.9 fold; the GFP, fold-change of MFI over no stimulation, High (10 ug/mL) was 5.4 fold. For the same substance, in [7], the GFP, fold-change of MFI over no stimulation, Low (0.4 ug/mL) amounted to 1.1 fold and the GFP, fold-change of MFI over no stimulation, Med. (2 ug/mL) stood at 2.9 fold. In [8], the CD69, fold-change of MFI over no stimulation, High (10 ug/mL) is 56.8 fold; the CD69, fold-change of MFI over no stimulation, Low (0.4 ug/mL) was found to be 4.9 fold; the CD69, fold-change of MFI over no stimulation, Med. (2 ug/mL) stood at 29.5 fold; the GFP, fold-change of MFI over no stimulation, High (10 ug/mL) was determined as 11.4 fold. In assay [8], the GFP, fold-change of MFI over no stimulation, Low (0.4 ug/mL) turned out to be 0.8 fold and the GFP, fold-change of MFI over no stimulation, Med. (2 ug/mL) came out at 3.3 fold.
“anti-CTLA-4 mAb clone 1003705 (antibody)”: in assay [9], the CD69, fold-change of MFI over no stimulation, High (10 ug/mL) is 7.2 fold; the CD69, fold-change of MFI over no stimulation, Low (0.4 ug/mL) is 3.1 fold; the CD69, fold-change of MFI over no stimulation, Med. (2 ug/mL) worked out at 5.6 fold; the GFP, fold-change of MFI over no stimulation, High (10 ug/mL) was 4.3 fold. In assay [9], the GFP, fold-change of MFI over no stimulation, Low (0.4 ug/mL) was 2.2 fold and the GFP, fold-change of MFI over no stimulation, Med. (2 ug/mL) stood at 3.8 fold. Moreover, in [10], the CD69, fold-change of MFI over no stimulation, High (10 ug/mL) was 6.2 fold; the CD69, fold-change of MFI over no stimulation, Low (0.4 ug/mL) was 2.7 fold; the CD69, fold-change of MFI over no stimulation, Med. (2 ug/mL) was 4.5 fold; the GFP, fold-change of MFI over no stimulation, High (10 ug/mL) was 5.9 fold. In addition, in assay [10], the GFP, fold-change of MFI over no stimulation, Low (0.4 ug/mL) came out at 2.6 fold and the GFP, fold-change of MFI over no stimulation, Med. (2 ug/mL) worked out at 4.6 fold.
